Laboratory results from patent US20050054047A1 (Amgen, published 2005).

Assays:
[1] = target: T1, DR3 (UniProt Q93038 25-417, limits assumed); assay: slide binding on transfected COS cells, I-125 anti-leucine-zipper antibody, autoradiography
T1 construct: whole, on cells; also called Apo3; WSL-1
T1 sequence (looked up): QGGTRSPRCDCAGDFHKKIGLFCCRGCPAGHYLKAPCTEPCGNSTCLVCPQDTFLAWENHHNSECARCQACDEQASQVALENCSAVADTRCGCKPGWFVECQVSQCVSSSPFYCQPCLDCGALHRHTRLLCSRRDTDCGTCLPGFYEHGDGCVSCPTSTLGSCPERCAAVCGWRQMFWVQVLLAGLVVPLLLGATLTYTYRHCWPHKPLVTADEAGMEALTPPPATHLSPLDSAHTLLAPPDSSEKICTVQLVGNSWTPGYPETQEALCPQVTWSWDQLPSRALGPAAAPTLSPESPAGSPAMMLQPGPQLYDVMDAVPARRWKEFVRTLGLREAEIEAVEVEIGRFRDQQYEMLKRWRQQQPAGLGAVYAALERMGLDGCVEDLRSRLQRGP
Protocol: (§1) Slides of COS cells were transfected with expression vectors containing TWEAKR, DR3, or vector without insert (control). After two days the cells were incubated with concentrated supernatants from CV-1 cells transfected with a vector encoding the leucine zipper TWEAK extracellular domain fusion protein. One hour later the cells were washed and probed with an I-125 labeled antibody against the leucine-zipper domain. The slides were washed, fixed, and autoradiography was performed using x-ray film. The TWEAKR transfected cells bound significant amounts of TWEAK. […] This experiment confirmed that the TWEAKR polypeptide identified in part A above, rather than DR3, is the major receptor for TWEAK. After discovery of the functional TWEAK receptor, other investigators also reported that DR3 is not the major receptor for TWEAK (Kaptein et al., FEBS Lett., 485(2-3): 135, 2000. The TWEAK-TWEAKR binding interaction was further characterized by Scatchard analysis.

[2] = target: T2, human TWEAK receptor (human, UniProt Q9NP84 28-129); assay: as above
T2 construct: Expressed on COS cells from an expression vector; The entry includes the signal peptide
T2 sequence: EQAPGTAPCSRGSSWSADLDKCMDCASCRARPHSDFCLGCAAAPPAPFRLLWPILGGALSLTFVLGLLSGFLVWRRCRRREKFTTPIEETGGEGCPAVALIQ
Protocol: as §1

B1: leucine zipper TWEAK extracellular domain fusion protein (ligand)
chain: not shown
notes: Used as concentrated supernatant from transfected CV-1 cells; also called LZ-TWEAK; pDC409-LZ-TWEAK product
[1]
  binding result: no binding
[2]
  binding result: binds
